Measurements: patent US20110256132A1 (published 2011)
Numbering of substitutions follows the chain as printed. Names may count otherwise. Read-outs that look alike come from different tables or passages of the source.

Experiments:
[1] = target: T1, mature myostatin (recombinant, dimeric) (mouse polyprotein used for in-house …, UniProt O08689 268-376); experiment: FORTEbio bio-layer interferometry, myostatin amine-coupled to sensor, 20 nM antibody, 1:1 fit
T1 construct: also called GDF-8; recombinant myostatin
T1 sequence: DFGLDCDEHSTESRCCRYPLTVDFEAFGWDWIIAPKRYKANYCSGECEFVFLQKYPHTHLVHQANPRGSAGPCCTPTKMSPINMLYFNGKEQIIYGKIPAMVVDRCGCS
Experimental: The affinity of 10B3 mouse parental and H2L2-C91S developability variant for recombinant myostatin was also assessed by FORTEbio™ (bio-layer inferometry) analysis. FORTEbio™ analyses were carried out by antigen capture. Myostatin (in-house, see above at 1.1) was coupled onto amine reactive biosensors by primary amine coupling in accordance with the manufacturer's instructions. Antibodies were then captured onto this surface at 20 nM concentrations. The data was analysed using the evaluation software inherent in the machine and the data analysed using 1:1 fit (see Table 16). Due to the limited number of myostatin molecules bound to the sensor surface and the low antibody concentration, avidity effects are reduced, enabling a more accurate measure of affinity compared to the Biacore analyses. […] However, due to the nature of the binding of the antibodies to myostatin, these values are mainly used for ranking purposes, and the affinity may not be representative of the affinity in vivo.

[2] = target: T1, mature myostatin (recombinant, dimeric); experiment: cell-based or functional assay
[3] = target: T1, mature myostatin (recombinant, dimeric); experiment: cell-based or functional assay; remark: listed apart in the source
[4] = target: T1, mature myostatin (recombinant, dimeric); experiment: cell-based or functional assay; remark: listed apart in the source
[5] = target: T1, mature myostatin (recombinant, dimeric); experiment: myostatin binding ELISA after 48 h at 37 C in 1% ammonium bicarbonate pH 9.0 (Examples 5.2, 4.2), A490
[6] = target: T1, mature myostatin (recombinant, dimeric); experiment: BIAcore, low density myostatin surface, methods as in 4.3
[7] = target: T1, mature myostatin (recombinant, dimeric); experiment: ProteOn XPR36, antibody captured from supernatant, myostatin analyte
Experimental: The initial kinetic analyses for the CDRH3 screen were carried out on the ProteOn XPR36 (Biorad Laboratories). For residues R95 to P100_B, analysis was carried out using a Protein A/G capture surface (Pierce 21186) was used and for residues A100_C to V102, an anti-human IgG surface was used (Biacore/GE Healthcare BR-1008-39). Both capture surfaces were prepared similarly using primary amine coupling to immobilise the capture molecule on a GLM chip (Biorad Laboratories 176-5012). CDRH3 variants were captured directly on either the Protein A/G or anti-human IgG surface (depending on the residue mutated) from tissue culture supernatants from transient transfections expressing the particular variant of interest. After capture, in-house recombinant human myostatin (see 1.1 above) was used as an analyte at 256 nM, 32 nM, 4 nM, 0.5 nM and 0.0625 nM, with a buffer injection alone (i.e. 0 nM) used to double reference the binding curves. Following the myostatin binding event, the capture surfaces were regenerated: for the Protein A/G capture surface, 100 mM phosphoric acid was used to regenerate the capture surface; and for the anti-human IgG surface, 3M MgCl₂ was used to regenerate the capture surface; the regeneration removed the previously captured antibody ready for another cycle of capture and binding analysis. […]

[8] = target: T1, mature myostatin (recombinant, dimeric); experiment: BIAcore, medium density myostatin surface, antibody analyte, 1:1 model (poor fits)
Experimental: (§1) Purified H0L0, H1L2 and H2L2 bound recombinant myostatin by BIAcore™ Recombinant myostatin was immobilised at three different densities (low, medium and high, to give R-max values of approximately 35, 120 and 350 RU's respectively) onto a BIAcore™ chip. Antibodies were passed over at 256, 64, 16, 4 and 1 nM. 0 nM antibody was used for double referencing and data was fitted to the 1:1 model.

[9] = target: T1, mature myostatin (recombinant, dimeric); experiment: myostatin binding ELISA with purified antibody, 10 ng/well recombinant myostatin coated, anti-human kappa HRP, A490 (Examples 4.1, 4.2); the text says the CHOK1 material was hard to quantify
Experimental: (§2) The myostatin binding ELISA was carried out approximately according to this protocol. A 96-well ELISA plate was coated at 4° C. overnight with 10 ng/well recombinant myostatin. This plate was then washed 3-times in wash buffer (PBS, 0.1% Tween-20). The wells were blocked for 1 hour at room temperature with block solution (PBS, 0.1% Tween-20+1% bovine serum albumin [BSA]), before washing 3-times in wash buffer. Antibodies were then titrated out to a suitable concentration range (approximately 100 to 0.001 μg/ml), added to the plate and incubated for 1 hour at room temperature. The plate was then washed 3-times in wash buffer. An anti-mouse IgG HRP-conjugated antibody (P0260 by Dako, this reagent was used according to the manufacturer's instructions) was used to detect binding of mouse antibodies, such as 10B3. An anti-human kappa light chain HRP-conjugated antibody (A7164 by Sigma Aldridge, this reagent was used according to the manufacturer's instructions) was used to detect binding of humanized or chimeric antibodies, such as 10B3 chimera or H0L0. The plate was then washed 3-times in wash buffer and developed with an OPD substrate (from Sigma, used according to the manufacturer's instructions) and read at 490 nm on a plate reader.

[10] = target: T1, mature myostatin (recombinant, dimeric); experiment: BIAcore, high density myostatin surface, antibody analyte, 1:1 model (poor fits)
Experimental: as §1

[11] = target: T1, mature myostatin (recombinant, dimeric); experiment: myostatin binding ELISA after 48 h at 37 C in PBS (Examples 5.2, 4.2), A490
[12] = target: T1, mature myostatin (recombinant, dimeric); experiment: myostatin binding ELISA after 48 h at 37 C in 1% ammonium bicarbonate pH 9.0 (Examples 5.2, 4.2), A490; remark: listed apart in the source
[13] = target: T1, mature myostatin (recombinant, dimeric); experiment: myostatin binding ELISA with purified antibody, 10 ng/well recombinant myostatin coated, anti-human kappa HRP, A490 (Examples 4.1, 4.2)
Experimental: as §2

[14] = target: T1, mature myostatin (recombinant, dimeric); experiment: BIAcore, low density myostatin surface, antibody analyte, 1:1 model
Experimental: as §1

[15] = target: T1, mature myostatin (recombinant, dimeric); experiment: cell-based or functional assay; remark: listed apart in the source

B1: H2L2 C91S (H2L2-C91S) (antibody, human IgG1, kappa, V domains shown)
VH: QVQLVQSGAEVKKPGASVKVSCKASGYSFTGYFMHWVRQAPGQGLEWMGNIYPYNGVSNYNQRFKARVTMTTDTSTSTAYMELRSLRSDDTAVYYCARRYYYGTGPADWYFDVWGQGTLVTVSS
VL: DIQMTQSPSSLSASVGDRVTITCKASQDINSYLSWFQQKPGKAPKSLIYRANRLVDGVPSKFSGSGSGTDYTLTISSLQPEDFATYYCLQSDEFPLTFGQGTKLEIKR
notes: Humanised, human IgG1/kappa; also called base molecule; base H2L2-C91S
Question: Which results are given for B1?
Answer: Kd [1]: 0.073 nM; koff [1]: 2.99e-05 s⁻¹; kon [1]: 410000 M⁻¹ s⁻¹; Mean IC50, A204 in vitro activity assay [2]: 4.08 nM; Mean IC50, A204 in vitro activity assay (5 nM myostatin) [3]: 5.14 nM; Mean IC50, A204 in vitro activity assay [4]: 9.26 nM; EC50 (read off the curve) [5]: ~1 nM; Kd [6]: 16.6 nM

B2: CDRH3 variant F100G_S of H2L2-C91S (antibody, human IgG1, kappa, V domains shown)
VH: B1 VH with F111S
VL: B1 VL
notes: tested only in the supernatant screen
Question: Does B2 bind [7]?
Answer: Result: binds

B3: H2L2 (antibody, human IgG1, kappa, V domains shown)
VH: B1 VH
VL: B1 VL with S91C
notes: Humanised, human IgG1 wild type/kappa
Question: How did the Kd [8] turn out when B3 was run?
Answer: Its Kd is 3 nM.

Question: What about the koff [8] of the same binder?
Answer: Its koff is 0.000737 s⁻¹.

Question: And the kon [8]?
Answer: Its kon is 246000 M⁻¹ s⁻¹.

Question: And the “EC50 (read off the curve)” value [9]?
Answer: The value was about 0.1 mg/L.

Question: And the Kd [10]?
Answer: Its Kd is 1.47 nM.

Question: What about the koff [10] of the same binder?
Answer: Its koff is 0.000216 s⁻¹.

Question: And the kon [10]?
Answer: Its kon is 147000 M⁻¹ s⁻¹.

Question: What about the “EC50 (read off the curve)” value [11] of the same binder?
Answer: Its value is about 0.7 nM.

Question: What about the “EC50 (read off the curve)” value [12] of the same binder?
Answer: The value was about 0.6 nM.

Question: And the “EC50 (read off the curve)” value [13]?
Answer: The value was about 0.09 mg/L.

Question: What about the Kd [14] of the same binder?
Answer: Its Kd is 8.37 nM.

Question: And the koff [14]?
Answer: The koff was 0.00268 s⁻¹.

Question: And the kon [14]?
Answer: The kon was 321000 M⁻¹ s⁻¹.

Question: What about the “Mean IC50, A204 in vitro activity assay” value [4] of the same binder?
Answer: Its value is 10.1 nM.

Question: What about the “Mean IC50, A204 in vitro activity assay” value [15] of the same binder?
Answer: The value was 8.6 nM.

Question: What about the Kd [6] of the same binder?
Answer: The Kd was 12 nM.
